# IntAct's records for PubMed 19208808
# B1: ATP-dependent RNA helicase DDX19B (Homo sapiens), Q9UMR2-1 (parent)
# chain: MATDSWALAVDEQEAAAESLSNLHLKEEKIKPDTNGAVVKTNANAEKTDEEEKEDRAAQSLLNKLIRSNLVDNTNQVEVLQRDPNSPLYSVKSFEELRLKPQLLQGVYAMGFNRPSKIQENALPLMLAEPPQNLIAQSQSGTGKTAAFVLAMLSQVEPANKYPQCLCLSPTYELALQTGKVIEQMGKFYPELKLAYAVRGNKLERGQKISEQIVIGTPGTVLDWCSKLKFIDPKKIKVFVLDEADVMIATQGHQDQSIRIQRMLPRNCQMLLFSATFEDSVWKFAQKVVPDPNVIKLKREEETLDTIKQYYVLCSSRDEKFQALCNLYGAITIAQAMIFCHTRKTASWLAAELSKEGHQVALLSGEMMVEQRAAVIERFREGKEKVLVTTNVCARGIDVEQVSVVINFDLPVDKDGNPDNETYLHRIGRTGRFGKRGLAVNMVDSKHSMNILNRIQEHFNKKIERLDTDDLDEIEKIAN
# Variants of: B1
# Settings: with NUP214, P35658-1
# Sequence of NUP214, P35658-1 (P35658 whole entry): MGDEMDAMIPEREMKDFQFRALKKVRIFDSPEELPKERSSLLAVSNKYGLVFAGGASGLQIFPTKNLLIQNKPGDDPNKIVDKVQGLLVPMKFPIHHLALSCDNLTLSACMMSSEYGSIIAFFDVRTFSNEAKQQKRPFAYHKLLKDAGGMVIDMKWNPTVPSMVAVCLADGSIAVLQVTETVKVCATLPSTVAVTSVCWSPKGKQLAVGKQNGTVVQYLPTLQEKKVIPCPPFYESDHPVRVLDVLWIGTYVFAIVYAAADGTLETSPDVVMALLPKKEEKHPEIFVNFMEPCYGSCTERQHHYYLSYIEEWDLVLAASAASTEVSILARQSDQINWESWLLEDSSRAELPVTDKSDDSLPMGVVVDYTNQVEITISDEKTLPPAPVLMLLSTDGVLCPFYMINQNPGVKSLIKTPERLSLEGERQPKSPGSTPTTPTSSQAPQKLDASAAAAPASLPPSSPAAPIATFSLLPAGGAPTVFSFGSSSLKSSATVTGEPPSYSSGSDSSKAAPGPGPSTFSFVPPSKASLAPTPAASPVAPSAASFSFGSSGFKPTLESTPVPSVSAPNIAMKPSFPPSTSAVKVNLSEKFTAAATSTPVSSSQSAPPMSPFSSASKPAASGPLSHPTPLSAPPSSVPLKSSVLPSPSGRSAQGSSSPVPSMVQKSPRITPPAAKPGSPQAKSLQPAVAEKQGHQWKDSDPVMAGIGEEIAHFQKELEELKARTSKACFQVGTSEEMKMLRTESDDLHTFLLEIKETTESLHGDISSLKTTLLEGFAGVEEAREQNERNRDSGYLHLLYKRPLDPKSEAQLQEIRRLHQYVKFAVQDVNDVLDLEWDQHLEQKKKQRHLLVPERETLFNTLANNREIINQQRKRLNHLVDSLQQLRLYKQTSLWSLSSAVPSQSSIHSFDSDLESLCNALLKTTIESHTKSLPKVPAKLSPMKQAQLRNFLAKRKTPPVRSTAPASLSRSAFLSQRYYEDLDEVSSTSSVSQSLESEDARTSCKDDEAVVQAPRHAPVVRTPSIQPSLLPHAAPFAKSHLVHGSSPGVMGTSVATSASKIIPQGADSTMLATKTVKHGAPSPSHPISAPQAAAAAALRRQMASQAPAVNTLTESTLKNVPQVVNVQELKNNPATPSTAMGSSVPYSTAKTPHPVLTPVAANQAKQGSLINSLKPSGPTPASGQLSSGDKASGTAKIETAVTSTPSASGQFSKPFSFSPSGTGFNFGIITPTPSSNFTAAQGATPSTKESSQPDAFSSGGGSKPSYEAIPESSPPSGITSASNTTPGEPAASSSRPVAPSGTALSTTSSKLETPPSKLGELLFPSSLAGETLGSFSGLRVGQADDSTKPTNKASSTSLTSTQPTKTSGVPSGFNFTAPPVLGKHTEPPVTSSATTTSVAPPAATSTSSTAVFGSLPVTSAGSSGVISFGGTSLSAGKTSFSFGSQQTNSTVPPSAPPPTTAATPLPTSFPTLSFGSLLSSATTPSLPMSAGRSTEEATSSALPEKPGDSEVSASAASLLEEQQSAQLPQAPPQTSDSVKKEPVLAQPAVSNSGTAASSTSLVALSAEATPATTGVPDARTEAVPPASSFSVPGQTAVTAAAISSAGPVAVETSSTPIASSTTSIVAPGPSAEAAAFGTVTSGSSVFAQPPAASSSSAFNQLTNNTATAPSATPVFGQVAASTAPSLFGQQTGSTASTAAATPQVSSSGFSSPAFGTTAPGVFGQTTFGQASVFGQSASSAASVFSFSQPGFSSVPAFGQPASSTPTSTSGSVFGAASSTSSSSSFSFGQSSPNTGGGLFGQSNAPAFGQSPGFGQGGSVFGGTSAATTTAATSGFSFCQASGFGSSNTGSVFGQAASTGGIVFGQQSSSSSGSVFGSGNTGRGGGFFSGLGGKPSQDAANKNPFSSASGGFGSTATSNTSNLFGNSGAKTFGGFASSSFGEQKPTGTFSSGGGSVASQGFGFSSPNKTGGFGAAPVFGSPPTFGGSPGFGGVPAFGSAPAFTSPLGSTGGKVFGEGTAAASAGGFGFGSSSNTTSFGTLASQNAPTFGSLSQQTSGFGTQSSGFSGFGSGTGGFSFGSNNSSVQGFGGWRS
row,Variant,effect of a mutation on the interaction
1,MATDSWALAVDEQEAAAESLSNLHLKEEKIKPDTNGAVVKTNANAEKTDEEEKEDRAAQSLLNKLIRSNLVDNTNQVEVLQRDPNSPLYSVKSFEELRLKPQLLQGVYAMGFNRPSKIQENALPLMLAEPPQNLIAQSQSGTGKTAAFVLAMLSQVEPANKYPQCLCLSPTYELALQTGKVIEQMGKFYPELKLAYAVRGNKLERGQKISEQIVIGTPGTVLDWCSKLKFIDPKKIKVFVLDEADVMIATQGHQDQSIQIQRMLPRNCQMLLFSATFEDSVWKFAQKVVPDPNVIKLKREEETLDTIKQYYVLCSSRDEKFQALCNLYGAITIAQAMIFCHTRKTASWLAAELSKEGHQVALLSGEMMVEQRAAVIERFREGKEKVLVTTNVCARGIDVEQVSVVINFDLPVDKDGNPDNETYLHRIGRTGRFGKRGLAVNMVDSKHSMNILNRIQEHFNKKIERLDTDDLDEIEKIAN [R259Q],decreasing interaction
2,MATDSWALAVDEQEAAAESLSNLHLKEEKIKPDTNGAVVKTNANAEKTDEEEKEDRAAQSLLNKLIRSNLVDNTNQVEVLQRDPNSPLYSVKSFEELRLKPQLLQGVYAMGFNRPSKIQENALPLMLAEPPQNLIAQSQSGTGKTAAFVLAMLSQVEPANKYPQCLCLSPTYELALQTGKVIEQMGKFYPELKLAYAVRGNKLERGQKISEQIVIGTPGTVLDWCSKLKFIDPKKIKVFVLDEADVMIATQGHQDQSIEIQRMLPRNCQMLLFSATFEDSVWKFAQKVVPDPNVIKLKREEETLDTIKQYYVLCSSRDEKFQALCNLYGAITIAQAMIFCHTRKTASWLAAELSKEGHQVALLSGEMMVEQRAAVIERFREGKEKVLVTTNVCARGIDVEQVSVVINFDLPVDKDGNPDNETYLHRIGRTGRFGKRGLAVNMVDSKHSMNILNRIQEHFNKKIERLDTDDLDEIEKIAN [R259E],disrupting interaction strength
3,MATDSWALAVDEQEAAAESLSNLHLKEEKIKPDTNGAVVKTNANAEKTDEEEKEDRAAQSLLNKLIRSNLVDNTNQVEVLQRDPNSPLYSVKSFEELRLKPQLLQGVYAMGFNRPSKIQENALPLMLAEPPQNLIAQSQSGTGKTAAFVLAMLSQVEPANKYPQCLCLSPTYELALQTGKVIEQMGKFYPELKLAYAVRGNKLERGQKISEQIVIGTPGTVLDWCSKLKFIDPKKIKVFVLDEADVMIATQGHQDQSIAIQRMLPRNCQMLLFSATFEDSVWKFAQKVVPDPNVIKLKREEETLDTIKQYYVLCSSRDEKFQALCNLYGAITIAQAMIFCHTRKTASWLAAELSKEGHQVALLSGEMMVEQRAAVIERFREGKEKVLVTTNVCARGIDVEQVSVVINFDLPVDKDGNPDNETYLHRIGRTGRFGKRGLAVNMVDSKHSMNILNRIQEHFNKKIERLDTDDLDEIEKIAN [R259A],disrupting interaction strength
